Residue numbers refer to the chain shown, from its start.
B1: TNFR2 antibody #125 (antibody, V domains shown)
VH: EVQLQESGGGLVQPGGSLNLSCAASGFAFSIYDLSWVRQTPEKRLEWVAYINNGGISTYYSDTVKGRFTISRDNAKNTLYLQMSSLKSEDTAMYYCVRGPFYGSANYFDYWGQGTTVTVSS
VL: DIQMTQSPASLSLSVGETVTITCRASENIYSNLAWYQQKQGKSPQLLVYDATKLAEGVPSRFSGSESGTQYSLKINSLQSEDFGTYYCQHFWVTPWTFGGGTKLEIK
B2: TNFR2 antibody #001 (antibody, V domains shown)
VH: B1 VH with I31T
VL: B1 VL with D1E, Q3V, A25T, N28S, A34P
notes: also called antibody #1
B3: TNFR2 antibody #088 (antibody, V domains shown)
VH: B1 VH with I31T, E42G, S71T
VL: B1 VL with Q3L, S14F
B4: TNFR2 antibody #133 (antibody, V domains shown)
VH: EVQLQESGAELVRSGASVKLSCTASGFNIKDYYIQWVKQRPEQGLEWIGWIDPESGNTKYAPKFQDKATMTADTSSNTAYLQLSGLTSEDSAVYYCNAYYDYDGSMDYWGQGTTVTVSS
VL: DIVMTQSPLSLPVSLGDQASISCRSSQSLVHSNGNTYLHWYLQKPGQSPKLLIYKVSNRFSGVPDRFSGSGSGTDFTLKISRVETDDLGVYFCSQSTHVPTWTFGGGTKLEIK
B5: TNFR2 antibody #224 (antibody, V domains shown)
VH: EVQLQESGPEIVKPGASVKLSCTASGFNNKDIYMHWVKQRPEQGLEWIGRIDPATGNTKHDPKFQDKATLSSDTSSNTAYLQFSSLTSEDTAVYYCAHSPYGDFGAMDYWGQGTTVTVSS
VL: DIQMTQSPAIMSASLGERVTMTCTASSSVSSNYLHWYQQKPGSSPKLWIYSTSNLPSGVPARFSGSGSGTSYSLTISSMEAEDAATYYCHQYHRSPWTFGGGTKLEIK
B6: TNFR2 antibody #309 (antibody, V domains shown)
VH: EVQLQESGAELVKPGASVKLSCKASGYTFTSYWIHWVKLRPGQGFEWIGEINPNNGGTDYNEKFKRKATLTVDKSSSTAYMELSSLTSEDSAIYYCTIDSMITTTWFAYWGQGTTVTVSS
VL: EIVMTQSQKLMSTVVGDRVSVTCKASQNVGTNVAWFQQKPGQSPKALINSASYRYSGVPDRFTGSGSGTDFTLTISSVQSEDLAEYFCQQYNSYPFTFGSGTKLEIK
B7: TNFR2 antibody #352 (antibody, V domains shown)
VH: EVQLQESGPGLVAPSQSLSITCTVSGFSLTSYGVHWVRQPPGKGLEWLVVIWSDGGTTYNSALKSRLSISKDNSKSQVFLKMNSLQTDDTAMYYCARHDDDGYYAMDYWGQGTTVTVSS
VL: DIVLTQSPSLMSASPGEKVTMTCSASSSVGYMYWYQQKPRSSPKPWIYLTSNLASGVPARFSGSGSGTSYSLTISSMEVEDAATYYCQQWSSDPFTFGSGTKLEIK
B8: TNFR2 antibody #395 (antibody, V domains shown)
VH: EVQLQESGPVLVQPSQSLSITCTVSGFSLTSYSVHWVRQSPGKGLEWLGVIWSDGGTDYSAAFISRLSISKDNSKSQVFFKMNSLQADDTAIYYCARNDDGGDYAMDYWGQGTTVTVSS
VL: B7 VL with D1E, S9A, G30S, V79A, D93N, F95L, S99A

Molecular target: T1, human TNFR2 on the cell surface (CHO-TNFR2 cells; human Treg cells) (human, UniProt P20333 23-461)
T1 sequence (looked up): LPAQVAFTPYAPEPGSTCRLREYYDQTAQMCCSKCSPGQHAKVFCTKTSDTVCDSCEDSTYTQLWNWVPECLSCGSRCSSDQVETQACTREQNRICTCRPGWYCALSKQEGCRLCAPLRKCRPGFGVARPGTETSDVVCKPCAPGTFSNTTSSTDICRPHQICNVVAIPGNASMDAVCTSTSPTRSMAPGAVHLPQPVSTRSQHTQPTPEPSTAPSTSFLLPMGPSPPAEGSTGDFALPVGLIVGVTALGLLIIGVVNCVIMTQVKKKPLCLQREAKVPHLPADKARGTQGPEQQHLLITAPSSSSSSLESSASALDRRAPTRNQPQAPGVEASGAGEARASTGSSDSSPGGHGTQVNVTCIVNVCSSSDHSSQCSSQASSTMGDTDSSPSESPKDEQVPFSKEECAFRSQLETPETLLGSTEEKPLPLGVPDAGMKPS
Experiment: cell-based or functional assay

Binder | proliferation inhibition (TNFα-induced Treg cell proliferation, against anti-Hel) [%]
B1 | 5.2
B2 | 17.1
B3 | 6.9
B4 | 9.7

Molecular target: T1, human TNFR2 on the cell surface …
Experiment: cell-based or functional assay
Remark: another data set of the same source

Binder | % AUC versus positive control (#52), ADCC against Treg [%]
B1 | 69.6
B2 | 80.8
B3 | 45.3
B4 | 46.6
B5 | 48.1
B6 | 56
B7 | 61.4
B8 | 59.3

Molecular target: T2, Human TNFR2 recombinant protein (Sino 10417-H08H) (human, UniProt P20333 23-257)
T2 construct: also called hTNFR2 (His tag)
T2 sequence (looked up): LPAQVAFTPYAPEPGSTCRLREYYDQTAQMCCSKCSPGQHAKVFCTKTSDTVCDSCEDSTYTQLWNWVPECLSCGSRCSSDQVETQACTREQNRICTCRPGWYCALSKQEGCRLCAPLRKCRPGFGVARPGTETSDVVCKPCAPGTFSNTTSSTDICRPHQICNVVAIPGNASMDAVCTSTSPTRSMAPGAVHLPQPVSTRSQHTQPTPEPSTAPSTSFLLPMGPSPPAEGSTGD
Experiment: SPR Biacore, antibody on Protein A chip, TNFR2 analyte
Experimental: (§1) In this experiment, Protein A chip was used, and the time required for the chip to capture the diluted antibody was determined by manual run, so that the Rmax of the saturated binding antigen was 50 RU. Human TNFR2 (Sino 10417-H08H) and cynomolgus TNFR2 (Sino 90102-C08H) were diluted to 32, 16, 8, 4, 2 nM. The affinity of antibody and antigen was measured by multi-cycle kinetics. In each cycle, anti-TNFR2 antibodies were injected prior to the injection of gradient concentrations of TNFR2 protein allowing the occurrence of antibody-antigen association and dissociation. After each cycle, the Protein A chip was regenerated with Glycine pH1.5 (to remove the protein on the chip). BIAcore T200 analysis software was used to calculate the affinity KD of antibody binding to antigen.

Binder | Kd [nM] | koff [s⁻¹] | kon [M⁻¹ s⁻¹]
B1 | 0.0681 | 5.57e-05 | 817000
B2 | 0.161 | 8.95e-05 | 556000
B3 | 0.107 | 5.46e-05 | 510000
B4 | 2.94 | 0.00388 | 1.32e+06
B5 | 0.101 | 2.36e-05 | 233000
B6 | 1.44 | 0.000748 | 519000
B7 | 1.41 | 0.00225 | 1.59e+06
B8 | 0.14 | 0.000237 | 1.7e+06

Molecular target: T3, cynomolgus TNFR2 (Sino 90102-C08H) (cynomolgus, UniProt A0A2K5VET2 132-366)
T3 construct: also called CynoTNFR2 (His tag)
T3 sequence: T2 sequence (looked up) with S16G, S36P, P117Q, N164H, E210A, S216G, M223V
Experiment: as above
Experimental: as §1

Binder | Kd [nM] | koff [s⁻¹] | kon [M⁻¹ s⁻¹]
B1 | 0.151 | 0.000155 | 1.02e+06
B2 | 0.279 | 0.000185 | 662000
B3 | 0.286 | 0.000172 | 601000
B4 | 3.61 | 0.0102 | 2.82e+06
B5 | 0.273 | 0.000116 | 425000
B6 | 2.48 | 0.00212 | 854000
B7 | 0.943 | 0.00243 | 2.57e+06
B8 | 0.0977 | 0.000276 | 2.83e+06

Molecular target: T1, human TNFR2 on the cell surface …
Experiment: flow cytometry, blocking of TNFα-biotin on CHO-TNFR2 cells
Experimental: (§2) CHO cells that stably overexpressed human TNFR2 were used for experiments. The cells were resuscitated and passaged until in good state, and the expression level of human TNFR2 on the cells was assessed by FACS. Compared to the isotype control, the assay could be carried out when the fold change of mean fluorescence intensity (MFI) was more than 100 times.
(§3) CHO-TNFR2 cells were digested, washed twice with DPBS and stained with Live/Dead (L/D) at room temperature for 20 min, and then seeded at 1×10⁵ cells/50 μl/well. […] The diluted antibodies were added 50 μl/well into wells pre-seeded with cells, and gently blown and mixed to make the final concentrations of the antibodies to 20, 6.67, 2.22, 0.74, 0.247, 0.08, 0.027 and 0 nM, respectively followed by incubation at 4° C. for 30 min. […] After washing twice with the staining buffer, 100 μl/well of PE-streptavidin was added and incubated at 4° C. for 30 min. After additional washing with the staining buffer twice, 150 μl resuspended cells was analyzed using an flow cytometry. Taking the logarithmic value of the antibody concentrations as abscissa and the corresponding MFI value as ordinate, the inhibition curve of the antibody was drawn, and the IC50 value was calculated by four parameters fitting.

Binder | IC50 [µg/mL]
B1 | 0.109
B2 | 0.14
B3 | 0.185
B4 | 0.04
B5 | 0.128
B6 | 0.116
B7 | 0.056
B8 | 0.021

Molecular target: T4, human TNFR2 (Novoprotein, Catalog No. C830) (human, UniProt P20333 23-257, limits assumed)
T4 construct: construct not described; also called TNFR2 protein
T4 sequence (looked up): T2 sequence (looked up)
Experiment: blocking ELISA, TNFα-biotin on coated human TNFR2, antibody 20 nM
Experimental: A microplate was pre-coated with 100 μl/well of 1 μg/ml human TNFR2 (Novoprotein, Catalog No. C830). […] After washing the plate, a Streptavidin-HRP working solution (1:10000 dilution) was added at 100 μl/well, and incubated with shaking at room temperature for 40 min. The plate was washed again, the HRP substrate TMB was added for color development, the termination solution was added to terminate the reaction, and the microplate reader was used to read the absorption value.

Binder | ELISA OD of antibodies to be tested (20 nM) [OD]
B1 | 0.161
B2 | 0.198
B3 | 0.35
B4 | 0.454
B5 | 0.123
B6 | 0.34
B7 | 0.474
B8 | 0.282

Molecular target: T1, human TNFR2 on the cell surface …
Experiment: flow cytometry, blocking of TNFα-biotin on CHO-TNFR2 cells; against 002#
Experimental: as §2, §3

Binder | IC50 Relative Value % [%]
B1 | 165
B2 | 65.6
B3 | 41.5
B4 | 150
B5 | 132
B6 | 70.7
B7 | 171
B8 | 270

Molecular target: T1, human TNFR2 on the cell surface …
Experiment: flow cytometry, blocking of TNFα-biotin on CHO-TNFR2 cells; AUC for 002# / AUC for antibody x 100
Experimental: as §2, §3

Binder | AUC % [%]
B1 | 121
B2 | 88.3
B3 | 75.4
B4 | 99.9
B5 | 100
B6 | 92.4
B7 | 116
B8 | 107

Source: patent US20220017630A1 (JIANGSU SIMCERE PHARMACEUTICAL, published 2022)
